Biological target: fgfr4_human FGFR4 (UniProt P22455)
Chain of UniProt P22455 (P22455 whole entry, looked up): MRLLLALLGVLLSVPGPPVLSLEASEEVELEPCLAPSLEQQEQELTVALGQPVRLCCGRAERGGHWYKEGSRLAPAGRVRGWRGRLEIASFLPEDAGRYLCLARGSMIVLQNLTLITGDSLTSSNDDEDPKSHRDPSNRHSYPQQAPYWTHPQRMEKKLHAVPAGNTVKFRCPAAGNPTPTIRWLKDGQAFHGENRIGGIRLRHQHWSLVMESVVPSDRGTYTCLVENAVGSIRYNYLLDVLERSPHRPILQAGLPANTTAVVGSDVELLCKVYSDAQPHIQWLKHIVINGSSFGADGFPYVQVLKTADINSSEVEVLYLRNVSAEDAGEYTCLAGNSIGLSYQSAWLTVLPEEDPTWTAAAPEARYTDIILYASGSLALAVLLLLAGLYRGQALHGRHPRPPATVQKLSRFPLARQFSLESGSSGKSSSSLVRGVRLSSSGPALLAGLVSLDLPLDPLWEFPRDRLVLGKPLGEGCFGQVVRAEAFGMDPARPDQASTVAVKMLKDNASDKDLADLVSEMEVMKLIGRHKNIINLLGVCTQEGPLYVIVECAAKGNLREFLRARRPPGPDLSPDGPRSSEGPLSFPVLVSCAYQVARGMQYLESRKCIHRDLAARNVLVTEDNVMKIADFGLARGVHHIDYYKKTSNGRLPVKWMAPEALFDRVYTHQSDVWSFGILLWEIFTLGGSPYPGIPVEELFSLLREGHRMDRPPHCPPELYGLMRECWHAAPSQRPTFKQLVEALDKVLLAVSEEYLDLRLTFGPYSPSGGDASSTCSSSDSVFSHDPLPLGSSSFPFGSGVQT

Substance	effect of a mutation on the interaction
Matrix metalloproteinase-14 (Homo sapiens) (from UniProt P50281) E240A	decreasing interaction
Matrix metalloproteinase-14 (Homo sapiens) (from UniProt P50281) Y573F	decreasing interaction

Source: IntAct's records for PubMed 20798051
